In patent publication US7259247 one finds expression of other activation antigens on CD4+ T cells, suboptimal OKT3, plate-bound antibody costimulation data, which are given here for one substance.

The target in this assay is CD28 (UniProt P10747). Put plainly: cell-based or functional assay.
Chain of UniProt P10747 (P10747 19-220 limits assumed): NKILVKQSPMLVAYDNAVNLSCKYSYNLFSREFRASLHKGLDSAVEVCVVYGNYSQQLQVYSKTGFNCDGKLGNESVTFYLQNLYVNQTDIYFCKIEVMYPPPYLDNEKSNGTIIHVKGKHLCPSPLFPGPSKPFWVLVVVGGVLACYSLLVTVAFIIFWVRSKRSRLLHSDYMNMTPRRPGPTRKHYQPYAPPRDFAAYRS

Regarding anti-CD28 antibody 9.3, the expression of other activation antigens on CD4+ T cells, suboptimal OKT3, plate-bound antibody costimulation is 4 to 100 fold.
